Patent publication US20120129778A1 (GlaxoSmithKline, published 2012)
Residue numbers refer to the chain shown, from its start. In names and notes the source's numbering stands.

B1: DOM23h-262-6 (other)
VH: EVQLLESGGGLVQPGGSLRLSCAASGFTFFNYEMAWARQAPGKGLEWVSLISAEGTRTYYANSVKGRFTISRDNSKNTLYLQMNSLRAEDTAVYYCAKRRDASMGHTTRRFDHWGQGTLVTVSS
B2: DOM23h-262 (other)
VH: B1 VH with N62D, H113Y
notes: Domain antibody (dAb), human immunoglobulin single variable domain, soluble monomer
B3: DOM23h-262-10 (other)
VH: B1 VH with Q39R, E54D, K65R, H113Y, W114S
B4: DOM23h-437 (other)
VH: EVQLLESGGGLVQPGGSLRLSCAASGFTFSDYRMWWVRQAPGKGLEWVSAIDSQGHTTYYADSVKGRFTISRDNSKNTLYLQMNSLRAEDTAVYYCAKYGGYFDYWGQGTLVTVSS
notes: VH dAb
B5: DOM23h-33 (other)
chain: B4 VH with D31Q, D52A, S53P, Q54S, H56D, T57N, Y99H, G100R, G101T, Y102S
notes: Naive dAb (immunoglobulin single variable domain)
B6: DOM23h-251 (other)
chain: EVQLLESGGGLVQPGGSLRLSCAASGFTFSDYDMWWVRQAPGKGLEWVSKITQKGDFTYYADSVKGRFTISRDNSKNTLYLQMNSLRAEDTAVYYCAKDATHFDYWGQGTLVTVSS
notes: Naive dAb
B7: DOM23h-435 (other)
chain: B4 VH with S21T, S30T, Y32D, S53P, H56Q, T57H, Y99H, G100N, G101S, Y102S
notes: Naive dAb
B8: DOM23h-436 (other)
chain: EVQLLESGGGLVQPGGSLRLSCAASGFTFSDYKMGWVRQAPGKGLEWVSSIWPNGGLTYYADSVKGRFTISRDNSKNTLYLQMNSLRAEDTAVYYCAKDHMGFDYWGQGTLVTVSS
notes: Naive dAb
B9: DOM23h-437-6 (other)
VH: B4 VH with A24T
notes: VH dAb
B10: DOM23h-437-9 (other)
VH: B4 VH with A24T, D62N, K65R
notes: VH dAb; also called DOM437-9
B11: DOM23h-440 (other)
chain: B4 VH with S30T, Y32D, S53P, H56Q, T57H, Y99E, G100L, G101L, Y102S
notes: Naive dAb
B12: DOM23h-271-3 (other)
VH: EVQLLESGGGLVQPGGSLRLSCTASGFTFTEYRMWWVRQAPGKGLEWVSLIEPIGNRTYYADSVKGRFTISRDNSKNTLYLQMNSLRAEDTAVYYCAKQIPGHMWTANPRSDYWGQGTQVTVSS
notes: VH dAb
B13: DOM23h-271 (other)
VH: B12 VH with T23A, L50S, M104K, P109S, S111F, Q119L
notes: VH dAb
B14: DOM23h-271-12 (other)
VH: B12 VH with D62N, K65R
notes: VH dAb; also called DOM23h-271-3 + D61N + K64R
B15: DOM23h-439-6 (other)
VH: EVQLLESGGGLVRPGGSLRLSCAASGFTFGTEQMWWVRQAPGKGLEWVSRIDSPGGRTYYADSVRGRFTISRDNSKNTLYLQMNSLRAEDTAVYYCAKRHAAGVSGTYFDYWGQGTLVTVSS
notes: VH dAb, already contains K64R
B16: DOM23h-439 (other)
VH: B15 VH with R13Q, R65K
notes: VH dAb
B17: DOM23h-439-8 (other)
VH: B15 VH with D62N
notes: VH dAb; also called DM23h-439-8; DOM23h-439-6 + D61N + K64R
B18: DOM23h-348 (other)
chain: EVQLLESGGGLVQPGGSLRLSCAASGFTFSDYDMAWARQAPGKGLEWVSRISHSGYSTYYADSVKGRFTISRDNSKNTLYLQMNSLRAEDTAVYYCAKRSWDGVHAQFDYWGQGTLVTVSS
notes: Naive dAb
B19: DOM23h-438 (other)
chain: EVQLLESGGGLVQPGGSLRLSCAASGFTFAQGDMWWVRQAPGKGLEWVSRIGMDGDKTYYADSVKGRFTISRDNSKNTLYLQMNSLRAEDTAVYYCAKGPSSTSPFDYWGQGTLVTVSS
notes: Naive dAb

Key:
[1] = molecular target: human TGF-β receptor type II on human cells (A549, SBE-bla HEK 293T) (human, UniProt P37173 23-567); experiment: cell-based or functional assay
[2] = molecular target: T1, recombinant human TGF-β RII/Fc chimera protein (R&D systems, cat no. 341-BR) (human, UniProt P37173 23-166); experiment: ELISA, plate coated with human TGF-β RII/Fc, dAb supernatant, anti-FLAG detection
T1 construct: extracellular domain; Bought protein, expressed in the mouse myeloma line NS0; also called hTGFb-RII/Fc; hTFGβ-RII-Fc; not shown: Fc region of human IgG1
Procedure: dAb clones that bound human TGF-β RII/Fc were identified by an ELISA. 96-well MAXISORP™ immuno plates (Nunc, Denmark) were coated with human TGF-β RII/Fc overnight at 4° C. The wells were washed three times with PBST and then blocked with 1% TWEEN™ in PBS (1% TPBS) for 1 hour at room temperature. The block was removed and a 1:1 mixture of 1% TPBS and dAb supernatant was added for 1 hour at room temperature. The plate was washed with three times with PBST and the detection antibody (Monoclonal anti-FLAG M2-peroxidase antibody, Sigma-aldrich, UK) was added and incubated for 1 hour at room temperature. The plates were developed using a colourimetric substrate (SUREBLUE™ 1-component TMB Microwell Peroxidase solution, KPL, Maryland, USA) and the optical density (OD) measured at […], the OD₄₅₀ being proportional to the amount of bound detection antibody.

[3] = molecular target: T1, recombinant human TGF-β RII/Fc chimera …; experiment: SPR (BIACORE 3000), hTGFb-RII/Fc coupled to a CM5 chip, co-inject; injection 1 = DOM23h-437-6 alone at 100 nM
Procedure: (§1) The SPR experiments were performed on a BIACORE™ 3000 instrument (BIACORE™, GE […]®, Sweden). hTGFb-RII/Fc antigen at 50 ug/ml in 10 mM sodium acetate buffer, pH 4 (BIACORE™, GE […]®, Sweden) was coupled to a CM5 sensor chip (BIACORE™, GE […]®, Sweden), according to the manufacturer's instructions. Approximately 5500 RUs of antigen were coupled. A blank flow cell was used as a reference. Purified dAbs were diluted in HBS-EP buffer (BIACORE™, GE […]®, Sweden) and flowed over the antigen-coated and blank flow cells at a rate of 30 μl/minute using the co-inject command. The coinject command allows the injection of a second sample immediately after the first one. The first injection consisted of a single dAb and the second injection consisted of a mixture of the first dAb and a second dAb. All dAbs were used at concentrations high enough to bind the antigen surface with maximal capacity. If the maximal binding capacity of the antigen surface by the first dAb can be exceeded by injecting the mixture of the two dAbs, the second dAb is likely to […] a different binding site or epitope on the antigen. If no further binding is observed following the second injection, then the two dAbs are likely to compete for the same antigen binding site. […]

[4] = molecular target: T1, recombinant human TGF-β RII/Fc chimera …; experiment: SPR (BIACORE 3000), hTGFb-RII/Fc coupled to a CM5 chip, co-inject; injection 1 = DOM23h-437-9 alone at 100 nM
Procedure: as §1

[5] = molecular target: T1, recombinant human TGF-β RII/Fc chimera …; experiment: SPR (BIACORE 3000), hTGFb-RII/Fc coupled to a CM5 chip, co-inject; injection 2 = mixture of DOM23h-437-6 (100 nM) and DOM23h-271-3 (500 nM) on a surface saturated with DOM23h-437-6
Procedure: as §1

[6] = molecular target: T1, recombinant human TGF-β RII/Fc chimera …; experiment: SPR (BIACORE 3000), hTGFb-RII/Fc coupled to CM5 chip, 100 nM dAb co-injected with 100 nM DOM23h-437-9 (competitor)
Procedure: as §1

[7] = molecular target: T1, recombinant human TGF-β RII/Fc chimera …; experiment: SPR (BIACORE 3000), hTGFb-RII/Fc coupled to a CM5 chip, co-inject; injection 2 = mixture of DOM23h-437-6 (100 nM) and DOM23h-439-6 (500 nM) on a surface saturated with DOM23h-437-6
Procedure: as §1

T1 sequence (P37173 23-166, change not shown): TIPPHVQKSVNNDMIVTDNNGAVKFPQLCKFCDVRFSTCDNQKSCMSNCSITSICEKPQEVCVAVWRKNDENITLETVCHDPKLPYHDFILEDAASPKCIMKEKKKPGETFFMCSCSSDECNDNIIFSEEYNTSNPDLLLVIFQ
Sequence of human TGF-β receptor type II on human cells (A549, SBE-bla HEK 293T) (P37173 23-567): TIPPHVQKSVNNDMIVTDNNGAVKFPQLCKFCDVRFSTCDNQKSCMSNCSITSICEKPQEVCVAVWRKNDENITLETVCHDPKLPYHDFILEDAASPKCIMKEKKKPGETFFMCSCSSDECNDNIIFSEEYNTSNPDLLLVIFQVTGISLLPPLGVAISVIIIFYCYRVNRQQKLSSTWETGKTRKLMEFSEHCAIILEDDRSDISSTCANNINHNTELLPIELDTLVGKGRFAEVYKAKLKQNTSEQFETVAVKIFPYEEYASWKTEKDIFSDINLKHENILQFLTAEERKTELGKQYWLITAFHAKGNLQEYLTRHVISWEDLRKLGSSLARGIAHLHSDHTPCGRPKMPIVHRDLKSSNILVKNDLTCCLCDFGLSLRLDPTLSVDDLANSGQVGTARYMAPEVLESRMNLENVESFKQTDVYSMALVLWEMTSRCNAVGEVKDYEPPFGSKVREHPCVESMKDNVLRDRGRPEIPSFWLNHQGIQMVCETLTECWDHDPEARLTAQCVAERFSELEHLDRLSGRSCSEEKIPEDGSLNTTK

Binder | binding result [2] | also measured
B1 |  | potency in the A549 IL-11 release assay relative to DOM23h-262 [1]: 54 fold
B2 | binds | 
B3 |  | potency in the A549 IL-11 release assay relative to DOM23h-262 [1]: 540 fold
B4 | binds | 
B5 | binds | 
B6 | binds | 
B7 | binds | 
B8 | binds | 
B9 |  | binding result [3]: binds
B10 |  | binding result [4]: binds
B11 | binds | 
B12 |  | binding result [5]: binds
B13 | binds | 
B14 |  | binding result [6]: binds
B15 |  | binding result [7]: binds
B16 | binds | 
B17 |  | binding result [6]: binds
B18 | binds | 
B19 | binds | 
